EP4714971A1 (Shanghai Hansoh Biomedical Co., Ltd., dated 2024)

Target: T1, cynomolgus monkey SEZ6 expressed on stably transfected CHO-K1 cells (cynomolgus monkey, UniProt Q53EL9 20-994 (human entry))
T1 construct: also called CHO-cynoSEZ6; monkey SEZ6 on the cell membrane
T1 chain: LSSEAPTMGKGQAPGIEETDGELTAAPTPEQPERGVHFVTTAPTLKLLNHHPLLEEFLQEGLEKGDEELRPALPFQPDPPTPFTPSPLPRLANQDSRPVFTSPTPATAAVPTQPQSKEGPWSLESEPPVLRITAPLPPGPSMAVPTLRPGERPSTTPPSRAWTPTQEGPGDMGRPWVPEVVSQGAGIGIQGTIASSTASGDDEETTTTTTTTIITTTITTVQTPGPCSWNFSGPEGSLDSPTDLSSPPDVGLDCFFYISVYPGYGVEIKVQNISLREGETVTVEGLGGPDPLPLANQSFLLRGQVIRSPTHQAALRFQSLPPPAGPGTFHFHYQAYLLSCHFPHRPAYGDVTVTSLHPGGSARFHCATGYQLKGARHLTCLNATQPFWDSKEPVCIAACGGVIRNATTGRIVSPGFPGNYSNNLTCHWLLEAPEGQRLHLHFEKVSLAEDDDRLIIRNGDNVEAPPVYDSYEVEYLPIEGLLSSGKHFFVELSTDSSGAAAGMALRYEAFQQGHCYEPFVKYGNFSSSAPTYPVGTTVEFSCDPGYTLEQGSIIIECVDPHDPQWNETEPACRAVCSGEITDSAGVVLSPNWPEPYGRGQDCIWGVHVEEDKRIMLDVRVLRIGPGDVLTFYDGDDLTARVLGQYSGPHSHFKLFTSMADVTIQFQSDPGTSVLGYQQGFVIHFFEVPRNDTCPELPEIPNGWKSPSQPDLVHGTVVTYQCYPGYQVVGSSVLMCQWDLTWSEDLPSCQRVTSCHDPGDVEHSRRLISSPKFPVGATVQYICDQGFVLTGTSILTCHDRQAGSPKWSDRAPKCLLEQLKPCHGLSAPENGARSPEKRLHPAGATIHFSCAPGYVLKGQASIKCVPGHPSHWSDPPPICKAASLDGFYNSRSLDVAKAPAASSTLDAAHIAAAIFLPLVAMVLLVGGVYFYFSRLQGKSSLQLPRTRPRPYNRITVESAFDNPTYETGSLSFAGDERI
Assay: flow cytometry on CHO-K1 cells expressing cynomolgus monkey SEZ6

- EC50: 0.26 nM
B1: hSC200 (hSC17.200) (antibody, human IgG1, kappa, V domains shown)
VH: EVQLVQSGAEVKKPGESLKISCKGSGYSFTSSWINWVRQMPGKGLEWMGRIYPGEGDTNYNGNFEGQVTISADKSISTAYLQWSSLKASDTAMYYCTRGLVMDYWGQGTLVTVSS
VL: EIVLTQSPATLSLSPGERATLSCRASQSVDYNGISYMHWYQQKPGQAPRLLIYAASNVQSGIPARFSGSGSGTDFTLTISSLEPEDFAVYYCQQSIEDPPTFGGGTKVEIKR
notes: also called control molecule; control antibody
